Experimental findings from patent US6559124B1, “Use of prosaposin and peptides obtained therefrom for treatment of neural degeneration” (Myelos Corporation, priority 1993, dated 2003) are described below.

Values joined by “and” are separate entries in the source; they are usually repeats but may differ in a detail not shown here. Identical values can stand only once. Where no end group is shown, it is not given here.

Series [1] concerns NS20Y neuroblastoma cells. Nature of the series: Neurite outgrowth of NS20Y neuroblastoma cells. The class given is cell-based. The note with it: for % Neurites after 24 hours: peptide added at 5 μg/ml, None = 18%. As to the method:
NS20Y neuroblastoma cells were grown in Dulbecco's Modified Eagle Medium (DMEM) containing 10% fetal calf serum (FCS) and 1 mM sodium pyruvate. Cells were removed with trypsin and plated in 30 mm petri dishes onto glass coverslips. After 20-24 hours the medium was replaced with DMEM containing 0.5% fetal calf serum plus effector proteins. Cells were cultured for another 24 hours, washed with phosphate buffered saline (PBS) and fixed with Bouin's solution (saturated aqueous picric acid/formalin/acetic acid 15:5:1) for 30 minutes. Fixative was removed with PBS and neurite outgrowth was scored under a phase contrast microscope. […] At least 200 cells were scored in different portions of each dish to determine the percentage of neurite bearing cells and assays were performed in duplicate.

The test system of a further series is NS20Y proteins. Nature of the series: Incorporation of 32P into NS20Y proteins. The class given is cell-based. The note with it: NS20Y cells; effector proteins 0.5-1.0 μg/ml, 10-15 minutes; versus controls or saposins A, B or D. As to the method: NS20Y cells were incubated in phosphate-free Hanks' balanced salt solution containing 2.5 μg/ml actinomycin D and 80-100 μCi/ml carrier-free [^32P]-orthophosphate (New England Nuclear) and effector proteins (0.5-1.0 μg/ml) and incubated for 10-15 minutes at room temperature. Cells were solubilized in SDS-PAGE sample buffer, analyzed by SDS-PAGE and autoradiographed.

On the set-up of series [2]: species or system rats. The note with it: rat, in vivo. As to the method: An 18-mer peptide consisting of amino acids 12-29 of saposin C with a tyrosine substituted for valine at position 12 was chemically synthesized on an Applied Biosystems Model 430 peptide synthesizer. The peptide was then radioiodinated by the lactoperoxidase method and 20×10^6 cpm were injected into the auricles of rats. The animals were sacrificed after one hour and 24 hours and the hearts were perfused with isotonic saline in order to remove the blood from the brain. The brain was then counted in a gamma counter in order to determine the percentage of peptide uptake. In addition, in the 24 hour experiment the brain was homogenized and separated into a capillary rich fraction (pellet) and a parenchymal brain fraction (supernatant) after dextran centrifugation (Triguero et al., (1990) J. Neurochem., 54: 1882-1888). This method allows for the discrimination between radiolabelled peptide within blood vessels and that within the brain. In the 24 hour experiment, 0.017% of the injected peptide was detected in whole brain, 75% of the label was in the parenchymal fraction and 25% was in the capillary fraction. At 1 hour 0.03% of the injected dose was present in whole brain.

In series [3] the test system is mouse cerebellar explants. Nature of the series: Neurite outgrowth and myelination in newborn mouse cerebellar explants. It counts as cell-based. The note with it: prosaposin 5 μg/ml, saposins 10 μg/ml; for cells with long projections at the periphery of the explant: day 15. As to the method: Newborn mouse cerebellar explants were prepared according to Satomi (Zool. Sci. 9, 127-137 (1992)). Neurite outgrowth and myelination were observed over 22 days in culture, during the period when the newborn mouse cerebellum normally undergoes neuronal differentiation and myelination begins. Prosaposin (5 μg/ml) and saposins A, B and C (10 μg/ml) were added on the second day after preparation of the explants (three control and three treated explants) and outgrowth of neurites and myelination were assessed under a bright field microscope with a video camera.

In series [4] the test system is PC12M pheochromocytoma cells. Nature of the series: Neurite outgrowth from NGF-responsive PC12M cells. It counts as cell-based. The note with it: high concentrations (2 mg/ml). An excerpt: Since nerve growth factor (NGF) acts on a variety of cell types, we wanted to determine whether it was involved in prosaposin-mediated outgrowth in neuroblastoma cells.

As for “1-27: synthetic peptide from the human saposin C domain, residues 1-27 (SDVYCEVCEFLVKEVTKLIDNNKTEKE; Saposin-C; UniProt P07602 311-337, looked up, fragment)”, the “% Neurites after 24 hours” value in series [1] worked out at 46%.
In the case of “1-40: amino terminal synthetic peptide, residues 1-40 of saposin C (SDVYCEVCEFLVKEVTKLIDNNKTEKEILDAFDKMCSKLP; Saposin-C; UniProt P07602 311-350, looked up, fragment)”, in series [1], the “neuritogenic activity (in words)” value is reported as “active” and the “% Neurites after 24 hours” value was determined as 42%.
On to “13-34: synthetic peptide from the human saposin C domain, residues 13-34 (KEVTKLIDNNKTEKEILDAFDK; Saposin-C; UniProt P07602 323-344, looked up, fragment)”, for which the “% Neurites after 24 hours” value in series [1] worked out at 50%.
As to “21-48: synthetic peptide from the human saposin C domain, residues 21-48 (NNKTEKEILDAFDKMCSKLPKSLSEECQ; Saposin-C; UniProt P07602 331-358, looked up, fragment)”, the “% Neurites after 24 hours” value in series [1] was 18%.
On to “41-82: carboxy terminal synthetic peptide, residues 41-82 of saposin C (KSLSEECQEVVDTYGSSILSILLEEVSPELVCSMLHLCSGTR; Saposin-C; UniProt P07602 351-392, looked up, fragment)”, for which, in series [1], the “neuritogenic activity (in words)” value was “inactive” and the “% Neurites after 24 hours” value worked out at 17%.
Regarding CEFLVKEVTKLIDNNKTEKEIL [8-29], the “phosphorylation of proteins of 148, 100, 80, 68, 50, 38 and 34 kDa (in words)” value in the series with NS20Y proteins is “stimulate phosphorylation”. Further, in series [1], the “neuritogenic activity (in words)” value is on record as “neuritogenic activity” and the “% Neurites after 24 hours” value is 56%. Also, in series [1] (FIG. 1a, higher concentrations required for activity), the “extent of neurite outgrowth compared with prosaposin or saposin C” value is given as “greater than with prosaposin or saposin C”.
In the case of “NGF: nerve growth factor, a neurotrophin [reference compound]”, the “neuritogenic activity (in words)” value in series [1] was “no effect on neurite outgrowth”. Besides, the “augmentation of the prosaposin neurite outgrowth response” value in series [1] (5 μg/ml NGF (FIG. 1b)) is on record as “did not augment the prosaposin response”.
As to “iodinated 18-mer: amino acids 12-29 of saposin C with tyrosine substituted for valine at position 12 (SEQ ID NO: 5), radioiodinated (YKEVTKLIDNNKTEKEIL; also: radioiodinated)”, in series [2], the “crossing of the blood brain barrier (in words)” value is recorded as “crosses the blood brain barrier”, the “injected peptide detected in whole brain” value is on record as 0.017%, the “label in the capillary fraction of brain” value turned out to be 25% and the “label in the parenchymal fraction of brain” value is reported as 75%. Also, in series [1], the “neuritogenic activity (in words)” value is given as “neuritogenic activity”.

B1: Saposin A: one of four saposins generated from prosaposin; inactive in neurite outgrowth (protein, UniProt P07602 60-142, looked up)
Saposin-A: SLPCDICKDVVTAAGDMLKDNATEEEILVYLEKTCDWLPKPNMSASCKEIVDSYLPVILDIIKGEMSRPGEVCSALNLCESLQ
modifications: Saposin-A
Turning to B1, the “cells with long projections at the periphery of the explant” value (“cells with long projections” for short) in series [3] is reported as “less prominent”. Moreover, in series [1], the “neuritogenic activity (in words)” value was “inactive” and the “% Neurites after 24 hours” value stood at 20%.

B2: saposin B: one of four saposins generated from prosaposin (protein, UniProt P07602 195-273, looked up)
Saposin-B: GDVCQDCIQMVTDIQTAVRTNSTFVQALVEHVKEECDRLGPGMADICKNYISQYSEIAIQMMMHMQPKEICALVGFCDE
modifications: Saposin-B
notes: one of four saposins generated from prosaposin
Turning to B2, the “cells with long projections” value in series [3] is listed as “less prominent”.

B3: Prosaposin: 70 kilodalton glycoprotein, precursor of saposins A, B, C and D; human sequence SEQ ID NO:2 (protein)
chain: MYALFLLASLLGAALAGPVLGLKECTRGSAVWCQNVKTASDCGAVKHCLQTVWNKPTVKSLPCDICKDVVTAAGDMLKDNATEEEILVYLEKTCDWLPKPNMSASCKEIVDSYLPVILDIIKGEMSRPGEVCSALNLCESLQKHLAELNHQKQLESNKIPELDMTEVVAPFMANIPLLLYPQDGPRSKPQPKDGDVCQDCIQMVTDIQTAVRTNSTFVQALVEHVKEECDRLGPGMADICKNYISQYSEIAIQMMMHMQPKEICALVGFCDEVKEMPMQTLVPAKVASKNVIPALDLVDPIKKHEVPAKSDVYCEVCEFLVKEVTKLIDNNKTEKEILDAFDKMCSKLPKSLSEECQEVVDTYGSSILSILLEEVSPELVCSMLHLCSGTRLPALTVHVTQPKDGGFCEVCKKLVGTLDRNLEKNSTKQEILAALEKGCSFLPDPYQKQCDQFVAEYEPVLIEILVEVMDPSFVCLKIGACPSAHKPLLGTEKCIWGPSYWCQNTETAAQCNAVEHCKRHVWN
Regarding B3, the “appearance of explant cultures on the eighth day” value in series [3] (day 8) is “thinner and more spread out than control cultures”. Further, the “cells with long projections” value in series [3] was “many cells with long projections”. Moreover, the “phosphorylation of proteins of 148, 100, 80, 68, 50, 38 and 34 kDa (in words)” value in the series on NS20Y proteins is on record as “stimulate phosphorylation”. In addition, the “neuritogenic activity (in words)” value in series [1] is “promoted reversible neurite outgrowth”. In series [1] (dose-response curve FIG. 1a), the “lowest concentration for activity (neurite outgrowth)” value is 1.4×10^−11 M and 10 ng/ml. For the same molecule, the “time at which retraction of neurite outgrowth was complete after removal” value in series [1] (prosaposin removed) was 36 h. For the same molecule, the “stimulation of neurite outgrowth from PC12M cells” value in series [4] is “failed to stimulate neurite outgrowth”.
